Assay results: the supplement of paper PMC12855868

B1: library; numbered along this chain (parent)
chain: MAAAGGARLLRAASAVLGGPAGRWLHHAGSRAGSSGLLRNRGPGGSAEASRSLSVSARARSSSEDKITVHFINRDGETLTTKGKVGDSLLDVVVENNLDIDGFGACEGTLACSTCHLIFEDHIYEKLDAITDEENDMLDLAYGLTDRSRLGCQICLTKSMDNMTVRVPETVADARQSIDVGKTS

Variants of: B1
Experiment: scaled log2 fold change in cell abundance, elesclomol vs control (0 = silent mean, 1 = nonsense mean) (scaled log2 ratio); higher = higher viability under elesclomol (loss of FDX1 cuproptosis function)
Conditions: glucose 10 mM
[1] = with ABC1 FDX1 KO, elesclomol 5 nM, 14 days
[2] = with HEK293T FDX1 KO, elesclomol 40 nM, 11 days
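Further: variant abundance is its share of total variant reads in each endpoint sample, from next-generation sequencing of the integrated ORF PCR-amplified out of genomic DNA.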

Variant | scaled log2 fold change [1] | scaled log2 fold change [2]
L117E | 1.05 | 0.745
L117T | 0.178 | 0.185
L117G | 0.483 | 0.224
L117N | 1.04 | 0.559
L117S | 0.36 | -1.36
L117M | 0.167 | -0.247
L117I | -0.11 | -0.196
L117Y | 1 | 1.02
L117R | 1.14 | 0.855
L117A | 0.00712 | 0.115
L117Q | 1.05 | 0.896
L117P | 1.02 | 1.03
L117H | 1.03 | 1.35
L117V | 0.152 | 0.867
L117F | 0.176 | 0.206
L117D | 1.19 | 0.855
L117K | 1.07 | 1.03
L117C | 0.0758 | 0.451
L117W | 1.03 | 0.891
F119H | 0.658 | -0.0181
F119Q | 0.852 | 0.755
F119Y | 0.389 | 0.17
F119V | -0.0745 | 1.48
F119K | 1.05 | 1.21

Variant | scaled log2 fold change [1] | scaled log2 fold change [2]
F119W | 0.0722 | -0.0842
F119S | 1.07 | 0.993
F119A | 0.901 | 0.518
F119R | 1.09 | 0.953
F119T | 0.311 | 0.547
F119L | 0.0116 | –
F119P | 0.974 | 0.628
F119D | 1.06 | 1.02
F119M | 0.178 | 0.132
F119E | 1.04 | 1.21
F119C | 0.133 | 0.831
F119G | 1.05 | 0.397
F119N | 0.967 | 0.538
F119I | 0.0519 | -0.0254
T114N | 0.0748 | 1.03
T114W | 1.03 | 0.814
T114H | -0.00732 | 0.334
T114M | 0.114 | 0.455
T114I | 1.02 | 1.01
T114K | 0.766 | 0.199
T114D | 0.795 | 0.798
T114C | 0.158 | 0.117
T114V | 0.906 | 0.208
T114Y | 0.838 | 0.412

Variant | scaled log2 fold change [1] | scaled log2 fold change [2]
T114A | -0.0113 | 0.0983
T114L | 0.463 | 0.0445
T114S | -0.416 | 0.997
T114R | 0.517 | 0.411
T114G | -1.41 | -0.22
T114F | 0.685 | 0.235
T114P | 1.01 | 0.956
T114E | 0.811 | 1.09
T114Q | -0.112 | 0.0599
E120A | 0.194 | -0.0676
E120C | 0.227 | -0.059
C115H | 0.953 | 1.29
C115V | 1.07 | 1.37
C115N | 0.976 | 1.34
C115M | 1.03 | 1.19
C115Y | 1.1 | 0.829
C115E | 1.27 | 0.99
C115R | 1.02 | 1.68
C115T | 1.13 | 0.783
C115Q | 0.93 | 1.07
C115K | 1.02 | 0.763
C115I | 1.04 | 0.907
C115A | 1.07 | 1.02
C115L | 1.09 | 1.15

Variant | scaled log2 fold change [1] | scaled log2 fold change [2]
C115D | 1.16 | 0.979
C115W | 1.1 | 1.36
C115P | 1.1 | 1.51
C115F | 1 | 1.25
C115S | 1.09 | 1.13
C115G | 1.06 | 1.1
I118N | 0.286 | -0.696
I118R | -0.527 | -0.461
I118C | -0.313 | -0.183
I118V | -0.103 | -0.548
I118L | 0.0425 | 0.108
I118H | 0.249 | 0.918
I118P | 1.16 | 0.991
I118E | -0.0205 | -0.0505
I118A | 0.0431 | -0.147
I118K | 0.00843 | 0.202
I118F | -0.0055 | -0.412
I118Q | 0.0897 | 0.252
I118W | 0.135 | 0.474
I118G | 0.403 | -0.108
I118T | -0.289 | 0.934
I118S | 0.159 | -0.594
I118D | 0.0488 | 0.0453
I118Y | 0.0377 | -0.427

Variant | scaled log2 fold change [1] | scaled log2 fold change [2]
I118M | 0.0783 | 0.694
H116T | 0.317 | -0.824
H116F | 0.69 | 0.87
H116Y | 0.484 | 1.02
H116K | 0.464 | -0.0313
H116D | 0.16 | -0.115
H116I | -1.23 | 0.162
H116W | -0.0982 | 0.125
H116S | -0.0363 | 0.435
H116A | 0.129 | 0.404
H116R | -0.042 | 0.647
H116N | -0.0564 | -0.554
H116M | -1.26 | 0.245
H116G | 0.0557 | -0.405
H116C | 0.0577 | 0.973
H116Q | -0.185 | 0.198
H116P | 0.152 | 0.891
H116V | 0.0823 | -0.296
H116E | -0.124 | 0.106
H116L | -0.55 | -0.291
